Values quoted from earlier work, collected in patent US20030144198A1, “Coadministration of transport protein with conjugated cobalamin to deliver agents” (priority 2001, published 2003).

Columns and labels:
[1] = biological target: cubilin (Homo sapiens, UniProt O60494); conditions: at 20° C., single binding site, dependent on calcium
[2] = the D isomer was not hydrolyzed
[3] = in plasma

Chain of cubilin (O60494 36-3623, species assumed): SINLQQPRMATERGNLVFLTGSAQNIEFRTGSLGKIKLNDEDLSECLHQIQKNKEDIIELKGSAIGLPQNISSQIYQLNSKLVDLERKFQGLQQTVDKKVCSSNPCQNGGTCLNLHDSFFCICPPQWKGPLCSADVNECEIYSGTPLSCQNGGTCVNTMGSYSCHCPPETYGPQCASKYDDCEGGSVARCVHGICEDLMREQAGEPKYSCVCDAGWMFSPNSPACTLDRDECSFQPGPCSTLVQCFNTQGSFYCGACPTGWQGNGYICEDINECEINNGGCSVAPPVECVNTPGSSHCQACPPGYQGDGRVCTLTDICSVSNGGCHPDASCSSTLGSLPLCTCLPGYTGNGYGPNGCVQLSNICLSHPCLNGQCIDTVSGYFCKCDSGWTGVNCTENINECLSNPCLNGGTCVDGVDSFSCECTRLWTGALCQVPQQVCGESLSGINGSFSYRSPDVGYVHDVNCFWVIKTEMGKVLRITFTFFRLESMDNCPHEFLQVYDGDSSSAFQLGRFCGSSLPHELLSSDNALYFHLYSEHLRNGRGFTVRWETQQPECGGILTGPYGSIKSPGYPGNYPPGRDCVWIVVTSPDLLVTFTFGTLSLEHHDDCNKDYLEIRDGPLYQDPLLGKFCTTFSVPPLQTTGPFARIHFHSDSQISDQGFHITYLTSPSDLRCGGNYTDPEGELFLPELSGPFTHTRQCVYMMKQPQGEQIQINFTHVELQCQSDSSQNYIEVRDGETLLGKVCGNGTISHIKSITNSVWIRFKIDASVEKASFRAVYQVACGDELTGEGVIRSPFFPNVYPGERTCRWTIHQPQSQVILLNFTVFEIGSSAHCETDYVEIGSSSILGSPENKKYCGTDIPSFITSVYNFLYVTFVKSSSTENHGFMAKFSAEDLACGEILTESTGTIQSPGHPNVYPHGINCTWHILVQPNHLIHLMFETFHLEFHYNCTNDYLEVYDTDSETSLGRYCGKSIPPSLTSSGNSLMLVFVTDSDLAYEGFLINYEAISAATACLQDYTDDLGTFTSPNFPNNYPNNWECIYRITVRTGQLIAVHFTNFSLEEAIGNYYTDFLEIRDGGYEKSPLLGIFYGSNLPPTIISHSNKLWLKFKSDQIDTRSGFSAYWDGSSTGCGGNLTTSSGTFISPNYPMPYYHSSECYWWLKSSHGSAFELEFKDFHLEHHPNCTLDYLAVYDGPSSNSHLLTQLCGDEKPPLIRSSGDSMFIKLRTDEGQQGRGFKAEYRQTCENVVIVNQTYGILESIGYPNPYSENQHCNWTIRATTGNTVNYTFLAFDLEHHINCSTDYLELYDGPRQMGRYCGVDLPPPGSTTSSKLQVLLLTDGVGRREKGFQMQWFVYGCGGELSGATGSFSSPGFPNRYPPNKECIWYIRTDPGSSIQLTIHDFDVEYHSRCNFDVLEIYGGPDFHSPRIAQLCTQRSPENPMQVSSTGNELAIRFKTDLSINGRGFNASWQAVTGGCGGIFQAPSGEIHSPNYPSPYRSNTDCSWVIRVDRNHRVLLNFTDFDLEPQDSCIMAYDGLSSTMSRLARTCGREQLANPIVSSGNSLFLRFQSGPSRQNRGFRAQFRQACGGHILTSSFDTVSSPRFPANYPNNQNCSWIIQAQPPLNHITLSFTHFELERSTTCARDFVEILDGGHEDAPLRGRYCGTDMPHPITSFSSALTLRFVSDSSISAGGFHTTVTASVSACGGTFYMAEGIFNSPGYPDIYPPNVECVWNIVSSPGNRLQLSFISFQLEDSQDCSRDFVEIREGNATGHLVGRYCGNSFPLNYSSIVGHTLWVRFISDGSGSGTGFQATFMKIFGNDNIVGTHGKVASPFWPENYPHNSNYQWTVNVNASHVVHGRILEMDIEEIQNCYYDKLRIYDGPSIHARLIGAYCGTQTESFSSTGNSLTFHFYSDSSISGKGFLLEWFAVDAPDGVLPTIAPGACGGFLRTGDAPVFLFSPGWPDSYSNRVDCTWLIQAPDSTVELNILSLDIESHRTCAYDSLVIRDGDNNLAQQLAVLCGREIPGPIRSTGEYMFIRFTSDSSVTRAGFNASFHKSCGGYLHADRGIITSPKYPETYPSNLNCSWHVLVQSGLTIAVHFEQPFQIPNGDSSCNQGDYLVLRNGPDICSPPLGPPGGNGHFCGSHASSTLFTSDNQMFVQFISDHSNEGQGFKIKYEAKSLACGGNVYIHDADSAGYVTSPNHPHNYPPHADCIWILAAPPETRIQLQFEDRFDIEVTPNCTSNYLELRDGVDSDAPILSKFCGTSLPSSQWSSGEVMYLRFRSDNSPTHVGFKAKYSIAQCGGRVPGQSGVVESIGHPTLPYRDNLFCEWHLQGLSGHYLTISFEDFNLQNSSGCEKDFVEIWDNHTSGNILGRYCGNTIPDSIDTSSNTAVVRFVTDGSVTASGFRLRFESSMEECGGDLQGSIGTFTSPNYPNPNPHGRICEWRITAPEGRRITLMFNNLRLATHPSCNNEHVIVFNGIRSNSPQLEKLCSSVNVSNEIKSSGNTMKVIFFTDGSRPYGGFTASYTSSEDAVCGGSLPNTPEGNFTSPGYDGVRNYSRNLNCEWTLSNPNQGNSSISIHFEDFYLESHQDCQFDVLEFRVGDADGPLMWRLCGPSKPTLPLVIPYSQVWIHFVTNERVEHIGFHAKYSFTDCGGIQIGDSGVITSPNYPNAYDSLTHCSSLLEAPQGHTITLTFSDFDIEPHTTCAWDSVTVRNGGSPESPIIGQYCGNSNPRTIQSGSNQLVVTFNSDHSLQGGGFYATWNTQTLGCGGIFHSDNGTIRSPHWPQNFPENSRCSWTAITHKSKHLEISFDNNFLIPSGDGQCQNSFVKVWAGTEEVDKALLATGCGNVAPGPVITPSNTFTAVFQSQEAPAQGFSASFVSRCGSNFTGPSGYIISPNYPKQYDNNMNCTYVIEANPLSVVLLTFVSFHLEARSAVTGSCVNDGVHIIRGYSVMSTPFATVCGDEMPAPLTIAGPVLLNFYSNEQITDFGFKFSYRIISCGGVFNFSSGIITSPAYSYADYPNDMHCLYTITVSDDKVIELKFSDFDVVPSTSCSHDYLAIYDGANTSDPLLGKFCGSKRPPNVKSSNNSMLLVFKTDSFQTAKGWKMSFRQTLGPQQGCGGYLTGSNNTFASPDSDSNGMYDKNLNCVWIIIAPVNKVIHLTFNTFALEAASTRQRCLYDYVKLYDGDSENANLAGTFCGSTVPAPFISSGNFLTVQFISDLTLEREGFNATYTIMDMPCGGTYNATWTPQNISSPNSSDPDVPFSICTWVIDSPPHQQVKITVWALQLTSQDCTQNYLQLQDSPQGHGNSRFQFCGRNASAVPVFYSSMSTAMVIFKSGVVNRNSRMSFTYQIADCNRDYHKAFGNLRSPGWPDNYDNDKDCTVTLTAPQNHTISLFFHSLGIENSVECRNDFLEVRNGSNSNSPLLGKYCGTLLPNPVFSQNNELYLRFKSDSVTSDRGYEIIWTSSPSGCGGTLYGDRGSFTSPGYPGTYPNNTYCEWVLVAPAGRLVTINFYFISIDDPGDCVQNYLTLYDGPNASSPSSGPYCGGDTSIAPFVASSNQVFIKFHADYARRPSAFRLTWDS
Chain of cubilin (P27352 19-417 partner, species assumed): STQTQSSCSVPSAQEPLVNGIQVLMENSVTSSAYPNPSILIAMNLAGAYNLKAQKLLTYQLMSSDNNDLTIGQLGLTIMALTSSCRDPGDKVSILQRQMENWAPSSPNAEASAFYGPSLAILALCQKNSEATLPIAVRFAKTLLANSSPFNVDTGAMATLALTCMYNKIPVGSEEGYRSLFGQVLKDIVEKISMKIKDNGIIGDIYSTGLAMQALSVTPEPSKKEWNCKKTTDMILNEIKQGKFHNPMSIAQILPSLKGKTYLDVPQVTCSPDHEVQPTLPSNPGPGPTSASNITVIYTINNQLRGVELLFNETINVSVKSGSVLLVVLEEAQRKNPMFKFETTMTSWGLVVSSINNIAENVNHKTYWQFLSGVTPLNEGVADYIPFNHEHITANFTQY

Molecule	t1/2 [3] [h]	further results
IF-B12: complex of intrinsic factor with vitamin B12		Kd [1]: 1 to 5 nM
COc1cccc2c1C(=O)c1c(O)c3c(c(O)c1C2=O)C[C@@](O)(C(C)=O)C[C@@H]3O[C@H]1C[C@H](NC(=O)[C@@H](N)CC(C)C)C(O)[C@H](C)O1 (stereo partly drawn) [N-(L-leucyl) daunorubicin]		hydrolysis in vivo [2]: hydrolyzed in vivo to regenerate daunorubicin
HC: haptocorrin, group of cobalamin binding proteins that includes TC-I and TC-III (protein, UniProt P20061 24-433, looked up) Transcobalamin-1: EICEVSEENYIRLKPLLNTMIQSNYNRGTSAVNVVLSLKLVGIQIQTLMQKMIQQIKYNVKSRLSDVSSGELALIILALGVCRNAEENLIYDYHLIDKLENKFQAEIENMEAHNGTPLTNYYQLSLDVLALCLFNGNYSTAEVVNHFTPENKNYYFGSQFSVDTGAMAVLALTCVKKSLINGQIKADEGSLKNISIYTKSLVEKILSEKKENGLIGNTFSTGEAMQALFVSSDYYNENDWNCQQTLNTVLTEISQGAFSNPNAAAQVLPALMGKTFLDINKDSSCVSASGNFNISADEPITVTPPDSQSYISVNYSVRINETYFTNVTVLNGSVFLSVMEKAQKMNDTIFGFTMEERSWGPYITCIQGLCANNNDRTYWELLSGGEPLSQGAGSYVVRNGENLEVRWSKY	240	
TC-I: transcobalamin I, plasma cobalamin storage protein (protein, UniProt P20061 24-433, looked up) Transcobalamin-1: EICEVSEENYIRLKPLLNTMIQSNYNRGTSAVNVVLSLKLVGIQIQTLMQKMIQQIKYNVKSRLSDVSSGELALIILALGVCRNAEENLIYDYHLIDKLENKFQAEIENMEAHNGTPLTNYYQLSLDVLALCLFNGNYSTAEVVNHFTPENKNYYFGSQFSVDTGAMAVLALTCVKKSLINGQIKADEGSLKNISIYTKSLVEKILSEKKENGLIGNTFSTGEAMQALFVSSDYYNENDWNCQQTLNTVLTEISQGAFSNPNAAAQVLPALMGKTFLDINKDSSCVSASGNFNISADEPITVTPPDSQSYISVNYSVRINETYFTNVTVLNGSVFLSVMEKAQKMNDTIFGFTMEERSWGPYITCIQGLCANNNDRTYWELLSGGEPLSQGAGSYVVRNGENLEVRWSKY	240	
